Consider 67 substances from paper PMC7397094.

The target of this assay is human recombinant RetGC1 (retinal membrane guanylyl cyclase 1) (human) (UniProt Q02846).
Chain of UniProt Q02846 (Q02846 52-1103): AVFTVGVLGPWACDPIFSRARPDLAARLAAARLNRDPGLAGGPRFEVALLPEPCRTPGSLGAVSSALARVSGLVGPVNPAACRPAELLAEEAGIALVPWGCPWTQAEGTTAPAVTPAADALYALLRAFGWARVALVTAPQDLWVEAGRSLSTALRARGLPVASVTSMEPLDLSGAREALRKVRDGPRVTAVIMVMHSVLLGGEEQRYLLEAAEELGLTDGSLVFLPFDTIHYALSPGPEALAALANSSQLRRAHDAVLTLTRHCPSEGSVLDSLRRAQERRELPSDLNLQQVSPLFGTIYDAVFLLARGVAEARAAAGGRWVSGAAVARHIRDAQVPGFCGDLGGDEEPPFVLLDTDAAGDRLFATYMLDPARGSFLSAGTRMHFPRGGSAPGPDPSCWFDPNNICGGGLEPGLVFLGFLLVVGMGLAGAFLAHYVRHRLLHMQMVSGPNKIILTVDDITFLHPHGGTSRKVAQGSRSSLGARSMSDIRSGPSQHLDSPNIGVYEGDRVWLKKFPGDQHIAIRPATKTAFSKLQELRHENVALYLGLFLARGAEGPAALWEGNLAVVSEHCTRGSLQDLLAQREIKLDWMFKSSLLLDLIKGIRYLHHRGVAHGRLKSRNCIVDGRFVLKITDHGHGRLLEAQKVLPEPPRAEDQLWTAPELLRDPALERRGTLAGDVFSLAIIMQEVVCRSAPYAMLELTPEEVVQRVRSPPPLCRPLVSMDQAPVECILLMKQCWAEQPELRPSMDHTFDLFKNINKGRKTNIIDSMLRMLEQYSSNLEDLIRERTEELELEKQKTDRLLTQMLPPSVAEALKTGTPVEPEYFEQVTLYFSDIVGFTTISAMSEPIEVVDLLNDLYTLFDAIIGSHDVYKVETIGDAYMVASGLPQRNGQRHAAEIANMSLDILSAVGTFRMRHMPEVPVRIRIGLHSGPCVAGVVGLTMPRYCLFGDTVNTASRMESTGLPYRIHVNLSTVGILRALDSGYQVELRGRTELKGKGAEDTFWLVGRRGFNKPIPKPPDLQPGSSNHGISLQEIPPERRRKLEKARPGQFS
As for “RD3 3L→S5 deletion (from UniProt Q7Z3Z2 1-195) (natural protein)”, the RetGC1 activity left with 100 nM RD3, % of that without RD3 (1.5 uM GCAP1) was found to be 3.9%. Next, “RD3 45RER47→45AAA47 (from UniProt Q7Z3Z2 1-195) (natural protein)”: 17.9%. Next, “RD3 50AVRK53→50KAIE53 (from UniProt Q7Z3Z2 1-195) (natural protein)”: 12.4%; “RD3 77ERLQ80→77QLRE80 (from UniProt Q7Z3Z2 1-195) (natural protein)”: 11.5%; “RD3 132EEE134→132QQQ134 (from UniProt Q7Z3Z2 1-195) (natural protein)”: 11.8%.

Regarding “RD3 137KLTRQ141→137QRKTL141 (from UniProt Q7Z3Z2 1-195) (natural protein)”, the RetGC1 activity left with 100 nM RD3, % of that without RD3 (1.5 uM GCAP1) came out at 8.6%. As for “RD3 147RGSL150→147GRLS150 (from UniProt Q7Z3Z2 1-195) (natural protein)”, the figure is 9.6%; as for “RD3 154KTRAR158→154ENSES158 (from UniProt Q7Z3Z2 1-195) (natural protein)”, 7.5%.

Consider “RD3 164SDIRT168→164RSDTI168 (from UniProt Q7Z3Z2 1-195) (natural protein)”, for which the RetGC1 activity left with 100 nM RD3, % of that without RD3 (1.5 uM GCAP1) came to 9.5%. “RD3 171EDVERD176→171KKAKQR176 (from UniProt Q7Z3Z2 1-195) (natural protein)”: the RetGC1 activity left with 100 nM RD3, % of that without RD3 (1.5 uM GCAP1) was found to be 2.5%. As for “RD3 178PPP180→178AAA180 (from UniProt Q7Z3Z2 1-195) (natural protein)”, the figure is 8.5%; as for “RD3 186SMP188→186PRS188 (from UniProt Q7Z3Z2 1-195) (natural protein)”, 12.7%. As to “RD3 A22E (from UniProt Q7Z3Z2 1-195) (natural protein)”, the RetGC1 activity left with 100 nM RD3, % of that without RD3 (1.5 uM GCAP1) stood at 6.4%. Regarding “RD3 A22Y (from UniProt Q7Z3Z2 1-195) (natural protein)”, the RetGC1 activity left with 100 nM RD3, % of that without RD3 (1.5 uM GCAP1) was 14.4%. Next, “RD3 A64R (from UniProt Q7Z3Z2 1-195) (natural protein)”: 15%; “RD3 A135R (from UniProt Q7Z3Z2 1-195) (natural protein)”: 9.1%. Next, “RD3 A151R/T152Q (from UniProt Q7Z3Z2 1-195) (natural protein)”: 7.1%. As for “RD3 C55D (from UniProt Q7Z3Z2 1-195) (natural protein)”, the figure is 6.9%. With “RD3 D72R (from UniProt Q7Z3Z2 1-195) (natural protein)”, the RetGC1 activity left with 100 nM RD3, % of that without RD3 (1.5 uM GCAP1) stood at 5.5%. With “RD3 D83R (from UniProt Q7Z3Z2 1-195) (natural protein)”, the RetGC1 activity left with 100 nM RD3, % of that without RD3 (1.5 uM GCAP1) worked out at 7.2%. For “RD3 E23R (from UniProt Q7Z3Z2 1-195) (natural protein)”, the RetGC1 activity left with 100 nM RD3, % of that without RD3 (1.5 uM GCAP1) is 8.2%. Next, “RD3 E27R (from UniProt Q7Z3Z2 1-195) (natural protein)”: 6.6%. As for “RD3 E39R (from UniProt Q7Z3Z2 1-195) (natural protein)”, the figure is 6.6%; as for “RD3 E41A (from UniProt Q7Z3Z2 1-195) (natural protein)”, 10.3%. As for “RD3 E41R (from UniProt Q7Z3Z2 1-195) (natural protein)”, the figure is 12.6%; as for “RD3 E108K (from UniProt Q7Z3Z2 1-195) (natural protein)”, 7.1%. Take “RD3 E110R (from UniProt Q7Z3Z2 1-195) (natural protein)”: the RetGC1 activity left with 100 nM RD3, % of that without RD3 (1.5 uM GCAP1) is 9.6%. Next, “RD3 E127R/R128E (from UniProt Q7Z3Z2 1-195) (natural protein)”: 10.1%; “RD3 F153R (from UniProt Q7Z3Z2 1-195) (natural protein)”: 7.3%. With “RD3 G35Y (from UniProt Q7Z3Z2 1-195) (natural protein)”, the RetGC1 activity left with 100 nM RD3, % of that without RD3 (1.5 uM GCAP1) was determined as 5.5%. Consider “RD3 I76R (from UniProt Q7Z3Z2 1-195) (natural protein)”, for which the RetGC1 activity left with 100 nM RD3, % of that without RD3 (1.5 uM GCAP1) turned out to be 7.5%.

As for “RD3 I97Y (from UniProt Q7Z3Z2 1-195) (natural protein)”, the RetGC1 activity left with 100 nM RD3, % of that without RD3 (1.5 uM GCAP1) worked out at 55%. Next, “RD3 L98R (from UniProt Q7Z3Z2 1-195) (natural protein)”: 5.9%. As for “RD3 L98Y (from UniProt Q7Z3Z2 1-195) (natural protein)”, the figure is 9.9%.

In the case of “RD3 L103R (from UniProt Q7Z3Z2 1-195) (natural protein)”, the RetGC1 activity left with 100 nM RD3, % of that without RD3 (1.5 uM GCAP1) was found to be 12.1%. As for “RD3 L144W (from UniProt Q7Z3Z2 1-195) (natural protein)”, the figure is 7.3%. Take “RD3 M24D (from UniProt Q7Z3Z2 1-195) (natural protein)”: the RetGC1 activity left with 100 nM RD3, % of that without RD3 (1.5 uM GCAP1) was determined as 10.9%. Next, “RD3 M31R (from UniProt Q7Z3Z2 1-195) (natural protein)”: 6.6%. As for “RD3 P67D (from UniProt Q7Z3Z2 1-195) (natural protein)”, the figure is 11%. As for “RD3 P67G (from UniProt Q7Z3Z2 1-195) (natural protein)”, the figure is 11.3%. In the case of “RD3 P75R (from UniProt Q7Z3Z2 1-195) (natural protein)”, the RetGC1 activity left with 100 nM RD3, % of that without RD3 (1.5 uM GCAP1) is 10.7%. On to “RD3 P90A (from UniProt Q7Z3Z2 1-195) (natural protein)”, for which the RetGC1 activity left with 100 nM RD3, % of that without RD3 (1.5 uM GCAP1) is 24.2%. Next, “RD3 Q43R (from UniProt Q7Z3Z2 1-195) (natural protein)”: 5.3%; “RD3 Q112E/E113Q (from UniProt Q7Z3Z2 1-195) (natural protein)”: 9.2%; “RD3 Q116Y (from UniProt Q7Z3Z2 1-195) (natural protein)”: 10.8%. Next, “RD3 Q123E/E124Q (from UniProt Q7Z3Z2 1-195) (natural protein)”: 11.9%; “RD3 R38S (from UniProt Q7Z3Z2 1-195) (natural protein)”: 18.2%; “RD3 R42E (from UniProt Q7Z3Z2 1-195) (natural protein)”: 14.5%. Take “RD3 R68D (from UniProt Q7Z3Z2 1-195) (natural protein)”: the RetGC1 activity left with 100 nM RD3, % of that without RD3 (1.5 uM GCAP1) was 12.4%. As for “RD3 R119S (from UniProt Q7Z3Z2 1-195) (natural protein)”, the figure is 12%. “RD3 R145D (from UniProt Q7Z3Z2 1-195) (natural protein)”: the RetGC1 activity left with 100 nM RD3, % of that without RD3 (1.5 uM GCAP1) came to 9.2%. As for “RD3 S20Y/P21R (from UniProt Q7Z3Z2 1-195) (natural protein)”, the figure is 11.5%; as for “RD3 S65Y (from UniProt Q7Z3Z2 1-195) (natural protein)”, 10.8%. With “RD3 S69Y (from UniProt Q7Z3Z2 1-195) (natural protein)”, the RetGC1 activity left with 100 nM RD3, % of that without RD3 (1.5 uM GCAP1) amounted to 9%. As for “RD3 S91Y (from UniProt Q7Z3Z2 1-195) (natural protein)”, the figure is 13.3%; as for “RD3 S120Y (from UniProt Q7Z3Z2 1-195) (natural protein)”, 8.2%. Consider “RD3 S143Y (from UniProt Q7Z3Z2 1-195) (natural protein)”, for which the RetGC1 activity left with 100 nM RD3, % of that without RD3 (1.5 uM GCAP1) is 9.1%. Next, “RD3 T18D/R19A (from UniProt Q7Z3Z2 1-195) (natural protein)”: 14.9%. Next, “RD3 T28R (from UniProt Q7Z3Z2 1-195) (natural protein)”: 15.3%. Next, “RD3 T34Q (from UniProt Q7Z3Z2 1-195) (natural protein)”: 8.1%; “RD3 T56H (from UniProt Q7Z3Z2 1-195) (natural protein)”: 9.2%. For the substance “RD3 T66K (from UniProt Q7Z3Z2 1-195) (natural protein)”, the RetGC1 activity left with 100 nM RD3, % of that without RD3 (1.5 uM GCAP1) was 7.3%. Next, “RD3 T70R (from UniProt Q7Z3Z2 1-195) (natural protein)”: 8.2%; “RD3 V58Q (from UniProt Q7Z3Z2 1-195) (natural protein)”: 16.7%. With “RD3 V86R/K87A (from UniProt Q7Z3Z2 1-195) (natural protein)”, the RetGC1 activity left with 100 nM RD3, % of that without RD3 (1.5 uM GCAP1) amounted to 7.1%.

With “RD3 W6L (from UniProt Q7Z3Z2 1-195) (natural protein)”, the RetGC1 activity left with 100 nM RD3, % of that without RD3 (1.5 uM GCAP1) stood at 11.1%. As for “RD3 W142A (from UniProt Q7Z3Z2 1-195) (natural protein)”, the figure is 7.9%.
